Data as given in patent US20240398899A1 (priority 2021, published 2024).

Key:
[1] = system: Swiss albino mice; assay: Passive avoidance test, scopolamine induced dementia; format: in vivo, Mus musculus (Swiss Albino)
Procedure: Required amount of recombinant lectin protein having SEQ ID NO: 1 was diluted in sterile Tris Buffered Saline (TBS) to achieve desired final concentration, i.e 0.1 mg/mL, 0.05 mg/mL, 0.025 mg/mL, at the doses of 0.5 mg/kg, 0.25 mg/kg and 0.125 mg/kg respectively. Formulation was prepared fresh daily.
TBS buffer and 0.5% CMC were used as a vehicle for preparation of test item, recombinant Lectin having SEQ ID NO: 1 and reference item formulation, respectively Male Mus musculus (Swiss Albino) aged between 8-10 weeks procured from GENTOX Bio services Pvt Ltd, Hyderabad. Animals were classified into 6 groups and acclimatized for two weeks. Animals were identified by cage labelling and tail marking and were randomized on the basis of their body weight.
Healthy male Swiss albino mice (n=48) were selected and randomized based on body weight (n=8 per Group) into 6 groups as mentioned in table no-1. The control group G1 was treated intravenously with vehicle daily till the experiment completion. Group G2 was considered as negative control and treated with vehicle. […] Group G4, G5 &G6 animals were treated with the test item recombinant lectin protein having SEQ ID NO: 1 at the dose of 0.5 mg/kg, 0.25 mg/kg and 0.125 mg/kg, respectively. All the test items were given intravenously (i.v) daily at the dose volume of 5 ml/kg for 14 Days. The body weight was recorded daily throughout the experimental period. […] One hour after the last dose of test items (on Day 14) all the animals were injected with scopolamine hydrobromide at the dose of 2.5 mg/kg, i.p., except the normal control group G1. Passive avoidance test was conducted 30 min after scopolamine injection.
This learning and memory test were performed in two chambers, which has square boxes, identical size, juxtaposed as illuminated and dark. A lamp was placed above one chamber for illumination. Each test involved two separate trials, a training trial and a test trial.
For the training trial, the mice were initially placed in the illuminated chamber. When the mice entered the dark chamber, an electrical shock (0.5 mA) for 3 sec. was delivered through stainless steel rods. The latency times once the mice entered from light compartment to the dark compartment was recorded using in-build timer. A test trial was performed 24 h following the training trial, and latency times to re-enter the dark chamber was measured up to 5 min

[2] = system: SH-SY5Y neuronal cells; assay: Cytoprotective effect against MPP+ iodide induced damage, MTT assay; conditions: MPP+ iodide 1 mM
Procedure: The Human Neuronal SH-SY5Y Cells were counted using hemocytometer and plated in 96 well plate at a density of 25,000 cells/well and incubated at 37° C. for 24 h. After incubation, cells were treated with recombinant lectin protein having the sequence of SEQ ID NO: 1 at concentrations ranging from 0.001 μg/ml 50 μg/ml for 24 h. After 24 h of treatment, cells were exposed to neurotoxin (MPP+ iodide, 1 mM) for 24 h. Cells treated with MPP+ iodide alone were included as negative control. Untreated cells were included as control. […] After treatment, the cytoprotective effect of SEQ ID NO: 1 on cell viability was assessed by 3-(4,5-dimethythiazol-2-yl)-2,5-diphenyl tetrazolium bromide (MTT) assay: The plate was taken out and 20 μl of 5 mg/ml of MTT 3-(4,5-dimethythiazol-2-yl)-2,5-diphenyl tetrazolium bromide solution was added to all the wells. The SH-SY5Y cells were incubated for 3 h at 37° C. The supernatant was aspirated and 150 μl of DMSO was added to each well to dissolve formazan crystals. The absorbance of each well was read at 540 nm using Synergy HT micro plate reader. The protective effect of the SEQ ID NO: 1 on survival of SH-SY5Y cells against MPP+ iodide induced damage was determined as: The viability of cells was determined as:
Where, the percentage cytotoxicity corresponding to each treatment was calculated as follows:
[formula] • X=Absorbance of cells treated with MPP+ iodide/recombinant lectin having SEQ ID NO: 1+MPP+Iodide • R=Absorbance of Control cells (Untreated) • Percentage protection was calculated as:
[(Absorbance of SEQ ID NO:1+MPP+Iodide)−(Absorbance of MPP+Iodide)/(Absorbance of Untreated)−(Absorbance of MPP+Iodide alone)]*100

B1: SEQ ID NO: 1: variant of the S. rolfsii lectin amino acid sequence (reported as Rec-2 in WO2010/095143) (protein)
chain: TYKITVRVYQTNPDAFFHPVEKTVWKYANGGTWTITDDQHVLTMGGSGTSGTLRFHADNGESFTATFGVHNYKRWCDIVTNLAADETGMVINQQYYSQKNREEARERQLSNYQVKNAKGRNFQIVYTEAEGNDLHANLIIG
[1]; G4: 0.5 mg/kg i.v. qdx14, compared with G2 (scopolamine)
  % increase in Transfer Latency Time: 33.2%
[1]; G4: 0.5 mg/kg i.v. qdx14, scopolamine 2.5 mg/kg i.p.
  Mean Transfer Latency Time: 85.26 s
[1]; G4: 0.5 mg/kg i.v. qdx14, scopolamine 2.5 mg/kg i.p., listed as SEQ ID NO 1
  Mean Transfer Latency Time: 85.26 ± 6.52 s
[1]; G5: 0.25 mg/kg i.v. qdx14, compared with G2 (scopolamine)
  % increase in Transfer Latency Time: 29.4%
[1]; G5: 0.25 mg/kg i.v. qdx14, scopolamine 2.5 mg/kg i.p.
  Mean Transfer Latency Time: 80.58 s
[1]; G5: 0.25 mg/kg i.v. qdx14, scopolamine 2.5 mg/kg i.p., listed as SEQ ID NO 1
  Mean Transfer Latency Time: 80.58 ± 9.08 s
[1]; G6: 0.125 mg/kg i.v. qdx14, compared with G2 (scopolamine)
  % increase in Transfer Latency Time: 24.9%
[1]; G6: 0.125 mg/kg i.v. qdx14, scopolamine 2.5 mg/kg i.p.
  Mean Transfer Latency Time: 75.81 s
[1]; G6: 0.125 mg/kg i.v. qdx14, scopolamine 2.5 mg/kg i.p., listed as SEQ ID NO 1
  Mean Transfer Latency Time: 75.81 ± 7.75 s
[2]; 0.001 μg/mL
  Percentage Protection: 58.6%
  Percentage Viability (w.r.t control): 85.1%
  Percentage cytotoxicity: 14.9%
[2]; 0.01 μg/mL
  Percentage Protection: 61.8%
  Percentage Viability (w.r.t control): 86.3%
  Percentage cytotoxicity: 13.7%
[2]; 0.05 μg/mL
  Percentage Protection: 68.8%
  Percentage Viability (w.r.t control): 88.8%
  Percentage cytotoxicity: 11.2%
[2]; 0.1 μg/mL
  Percentage Protection: 52.6%
  Percentage Viability (w.r.t control): 83%
  Percentage cytotoxicity: 17%
[2]; 1 μg/mL
  Percentage Protection: 40.2%
  Percentage Viability (w.r.t control): 78.8%
  Percentage cytotoxicity: 21.2%
[2]; 5 μg/mL
  Percentage Protection: 49.6%
  Percentage Viability (w.r.t control): 82.1%
  Percentage cytotoxicity: 17.9%
[2]; 10 μg/mL
  Percentage Protection: 85.6%
  Percentage Viability (w.r.t control): 94.9%
  Percentage cytotoxicity: 5.1%
[2]; 25 μg/mL
  Percentage Protection: 78.6%
  Percentage Viability (w.r.t control): 92.4%
  Percentage cytotoxicity: 7.6%
[2]; 50 μg/mL
  Percentage Protection: 62.1%
  Percentage Viability (w.r.t control): 86.6%
  Percentage cytotoxicity: 13.4%
